Common to all, as to assay: cell-based or functional assay
In test [1] the target is wild-type non-luminescent polypeptide (WT fragment of residues 1-156 of NanoLuc).
A further test deals with NLpep9-HT.
In a further test the target is NLpep53-HT.

Luminescence after complementation (relative; unit not given) and luminescence after complementation (RLU(mutant)/RLU(WT)) data for 60 substances are collected here from patent US20140348747A1.

Substance NLpep-HT G157C showed a luminescence after complementation (relative; unit not given) in test [1] of 0.0468.
The same measure, in the same setting: then NLpep-HT G157D, with 0.549; and NLpep-HT G157E, with 1.45; and NLpep-HT G157H, with 0.573.
On the same count and under the same terms, then NLpep-HT G157N, with 3.31; and NLpep-HT G157P, with 0.0543; and NLpep-HT G157S, with 1.72.
Consider NLpep-HT I167E, for which, in test [1], the luminescence after complementation (relative; unit not given) was determined as 0.244.
Still for that read-out and setting: to NLpep-HT I167F belongs 0.179.
Take NLpep-HT I167Q: the luminescence after complementation (relative; unit not given) in test [1] amounted to 0.117.
In test [1], NLpep-HT I167R yielded a luminescence after complementation (relative; unit not given) of 0.0469.
Substance NLpep-HT I167V returned a luminescence after complementation (relative; unit not given) in test [1] of 1.08.
In turn, NLpep-HT L163I had a luminescence after complementation (relative; unit not given) in test [1] of 0.292.
NLpep-HT L163K: in test [1], the luminescence after complementation (relative; unit not given) was 0.0786.
Still for that read-out and setting: then NLpep-HT L163T, with 0.0262.
On the same count and under the same terms, then NLpep-HT L163V, with 0.119; and NLpep-HT L163Y, with 0.196.
On to NLpep-HT R166K, for which the luminescence after complementation (relative; unit not given) in test [1] stood at 1.21.
In turn, NLpep-HT R166N gave a luminescence after complementation (relative; unit not given) in test [1] of 0.118.
The same measure, in the same setting: to NLpep-HT T159K belongs 0.0307.
In test [1], NLpep-HT T159Q displayed a luminescence after complementation (relative; unit not given) of 0.031.
On the same count and under the same terms, then NLpep-HT T159V, with 0.0455.
Still for that read-out and setting: to NLpep-HT V158A belongs 0.144; to NLpep-HT V158I, 1.6; to NLpep-HT V158K, 0.192.
Regarding NLpep-HT V158Q, the luminescence after complementation (relative; unit not given) in test [1] stood at 0.0397.
On the same count and under the same terms, then NLpep-HT V158S, with 0.0838; and NLpep-HT W161E, with 0.0012.
Same read-out and setting: then NLpep-HT W161F, with 0.0717; and NLpep-HT W161K, with 0.0008.
The same measure, in the same setting: then NLpep-HT W161T, with 0.01.
Substance NLpep-HT W161V gave a luminescence after complementation (relative; unit not given) in test [1] of 0.005.
Same read-out and setting: then NLpep-HT W161Y, with 0.215.
As for NLpoly D108N, the figures for the luminescence after complementation (RLU(mutant)/RLU(WT)) with NLpep9-HT and with NLpep53-HT were 2.08 and 1.88, respectively.
As for NLpoly F31I, the luminescence after complementation (RLU(mutant)/RLU(WT)) was found to be 4.1 in the test with NLpep9-HT and 2.83 with NLpep53-HT.
On the same counts, the results for NLpoly F31L are 3.13 and 2.86.
On the same counts, the results for NLpoly F31V are 2.12 and 2.12.
For the substance NLpoly G15S, the luminescence after complementation (RLU(mutant)/RLU(WT)) with NLpep9-HT was found to be 1.98; in the test with NLpep53-HT it was 2.34.
On the same counts, the results for NLpoly G67D are 1.78 and 1.57.
Consider NLpoly G67S, for which the luminescence after complementation (RLU(mutant)/RLU(WT)) in the test with NLpep9-HT amounted to 1.22; with NLpep53-HT, 1.29.
For NLpoly I56N, the figures for the luminescence after complementation (RLU(mutant)/RLU(WT)) with NLpep9-HT and in the test with NLpep53-HT were 0.44 and 1.81, respectively.
As for NLpoly I59T, the luminescence after complementation (RLU(mutant)/RLU(WT)) with NLpep9-HT is 1.07; in the test with NLpep53-HT it was 1.35.
Turning to NLpoly K75E, the values for the luminescence after complementation (RLU(mutant)/RLU(WT)) in the test with NLpep9-HT and with NLpep53-HT were 2.08 and 2.05, respectively.
On to NLpoly L18Q, for which the luminescence after complementation (RLU(mutant)/RLU(WT)) with NLpep9-HT was determined as 3.81; in the test with NLpep53-HT, 2.99.
Take NLpoly L149M: the luminescence after complementation (RLU(mutant)/RLU(WT)) with NLpep9-HT turned out to be 2.89; in the test with NLpep53-HT, 2.16.
As to NLpoly M106I, the figures for the luminescence after complementation (RLU(mutant)/RLU(WT)) with NLpep9-HT and in the test with NLpep53-HT were 1.27 and 1.31, respectively.
Consider NLpoly M106V, for which the luminescence after complementation (RLU(mutant)/RLU(WT)) with NLpep9-HT was 1.3; in the test with NLpep53-HT, 1.4.
Consider NLpoly N33K, for which the luminescence after complementation (RLU(mutant)/RLU(WT)) with NLpep9-HT is 2.15; with NLpep53-HT it was 1.76.
On the same counts, the results for NLpoly N33R are 2.1 and 1.56.
With NLpoly N144T, the values for the luminescence after complementation (RLU(mutant)/RLU(WT)) with NLpep9-HT and with NLpep53-HT were 3.69 and 2.26, respectively.
On the same counts, the results for NLpoly N156D are 1.57 and 1.21.
As to NLpoly N156S, the results for the luminescence after complementation (RLU(mutant)/RLU(WT)) with NLpep9-HT and in the test with NLpep53-HT were 1.04 and 1.4, respectively.
On the same counts, the results for NLpoly Q20K are 4.43 and 2.33.
Consider NLpoly Q32R, for which the luminescence after complementation (RLU(mutant)/RLU(WT)) with NLpep9-HT worked out at 1.52; with NLpep53-HT, 1.04.
On the same counts, the results for NLpoly R11N are 3.37 and 2.09.
On the same counts, the results for NLpoly R112N are 1.61 and 1.45.
On to NLpoly T13I, for which the luminescence after complementation (RLU(mutant)/RLU(WT)) with NLpep9-HT is 2.18; with NLpep53-HT, 1.44.
NLpoly V27M: the luminescence after complementation (RLU(mutant)/RLU(WT)) in the test with NLpep9-HT was found to be 1.99; with NLpep53-HT it was 1.7.
In the case of NLpoly V58A, the luminescence after complementation (RLU(mutant)/RLU(WT)) was 1.88 with NLpep9-HT and 1.07 with NLpep53-HT.
For the substance NLpoly V157D, the luminescence after complementation (RLU(mutant)/RLU(WT)) turned out to be 4.98 with NLpep9-HT and 3.02 with NLpep53-HT.
